Experimental data published in article PMC5812673.

Target: Insulin Aspart (human)
Test: hexamer dissociation kinetics

Hexamer t½ (dissociation of the Zn2+-hexamer): 42.7 s
Substance: Insulin Aspart (natural protein)
